tested on: Escherichia coli TOP10; assay: shrunken log2 fold change of peptide-encoding DNA abundance (4.5 h post-induction vs induction); higher = less antimicrobial activity (less host growth inhibition); conditions: time post-induction: 4.5 h; library: site-saturation at positions 5, 18, 19, 20
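Further: peptides expressed intracellularly from a pBAD plasmid library in pooled LB shake-flask culture, induced with 0.3% L-arabinose, DNA abundance read by NGS, three biological replicates, DESeq2 with apeglm shrinkage.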

Q: Which “shrunken log2 fold change” value does the source give for RRIRIRPPRLPRPRPRPGWHPRP here?
A: The value was -0.0557.

Q: For RRIRGRPPRLPRPRPRPWYSPRP, which “shrunken log2 fold change” value is on record?
A: The value was -0.471.

Q: How did the “shrunken log2 fold change” value turn out when RRIRARPPRLPRPRPRPTSCPRP was run?
A: Its value is -0.15.

Q: For RRIRFRPPRLPRPRPRPVYFPRP, which “shrunken log2 fold change” value is on record?
A: The value was -0.399.

Q: With RRIRIRPPRLPRPRPRPSTHPRP as the sequence, how does the “shrunken log2 fold change” value read?
A: Its value is -1.02.

Q: For RRIRQRPPRLPRPRPRPAHSPRP, which “shrunken log2 fold change” value is on record?
A: Its value is 0.426.

Q: Which “shrunken log2 fold change” value does the source give for RRIRIRPPRLPRPRPRPHSIPRP here?
A: The value was -0.933.

Q: For RRIRLRPPRLPRPRPRPNMRPRP, which “shrunken log2 fold change” value is on record?
A: The value was 0.0295.

Q: RRIRCRPPRLPRPRPRPICDPRP was tested. Which “shrunken log2 fold change” value did it give?
A: The value was -0.0093.

Q: With RRIRYRPPRLPRPRPRPDHTPRP as the sequence, how does the “shrunken log2 fold change” value read?
A: The value was -0.11.

Q: RRIRNRPPRLPRPRPRPWLSPRP was tested. Which “shrunken log2 fold change” value did it give?
A: The value was 0.0232.

Q: With RRIRFRPPRLPRPRPRPTEHPRP as the sequence, how does the “shrunken log2 fold change” value read?
A: Its value is -0.316.

Q: Which “shrunken log2 fold change” value does the source give for RRIRHRPPRLPRPRPRPCGIPRP here?
A: The value was -0.0112.

Q: RRIRIRPPRLPRPRPRPHPMPRP was tested. Which “shrunken log2 fold change” value did it give?
A: Its value is -0.133.

Q: For RRIRHRPPRLPRPRPRPDNCPRP, which “shrunken log2 fold change” value is on record?
A: The value was -0.0245.

Q: How did the “shrunken log2 fold change” value turn out when RRIRERPPRLPRPRPRPFQEPRP was run?
A: Its value is -0.0402.

Q: Which “shrunken log2 fold change” value does the source give for RRIRSRPPRLPRPRPRPASRPRP here?
A: Its value is 0.189.

Q: With RRIRRRPPRLPRPRPRPEINPRP as the sequence, how does the “shrunken log2 fold change” value read?
A: The value was -0.0385.

Q: RRIRPRPPRLPRPRPRPKMPPRP was tested. Which “shrunken log2 fold change” value did it give?
A: Its value is -0.0926.

Q: RRIRARPPRLPRPRPRPMTYPRP was tested. Which “shrunken log2 fold change” value did it give?
A: Its value is -0.086.

Q: With RRIRVRPPRLPRPRPRPVWMPRP as the sequence, how does the “shrunken log2 fold change” value read?
A: The value was 0.52.

Q: RRIRCRPPRLPRPRPRPECYPRP was tested. Which “shrunken log2 fold change” value did it give?
A: Its value is -0.238.

Q: Which “shrunken log2 fold change” value does the source give for RRIRVRPPRLPRPRPRPQWCPRP here?
A: Its value is 0.0102.

Q: RRIRQRPPRLPRPRPRPFMWPRP was tested. Which “shrunken log2 fold change” value did it give?
A: The value was -0.245.

Q: Which “shrunken log2 fold change” value does the source give for RRIRPRPPRLPRPRPRPYAGPRP here?
A: Its value is -0.00254.

Q: RRIRHRPPRLPRPRPRPLTHPRP was tested. Which “shrunken log2 fold change” value did it give?
A: The value was -1.14.

Q: For RRIRPRPPRLPRPRPRPLKAPRP, which “shrunken log2 fold change” value is on record?
A: Its value is -0.0747.

Q: How did the “shrunken log2 fold change” value turn out when RRIRRRPPRLPRPRPRPTPVPRP was run?
A: Its value is 0.969.

Q: How did the “shrunken log2 fold change” value turn out when RRIRPRPPRLPRPRPRPDDFPRP was run?
A: The value was -0.371.

Q: With RRIRDRPPRLPRPRPRPLPRPRP as the sequence, how does the “shrunken log2 fold change” value read?
A: The value was 0.391.

Q: RRIRKRPPRLPRPRPRPWRVPRP was tested. Which “shrunken log2 fold change” value did it give?
A: Its value is 0.122.

Q: Which “shrunken log2 fold change” value does the source give for RRIRDRPPRLPRPRPRPMITPRP here?
A: The value was -0.115.

Q: For RRIRARPPRLPRPRPRPPPLPRP, which “shrunken log2 fold change” value is on record?
A: The value was 1.84.

Q: RRIRHRPPRLPRPRPRPTTPPRP was tested. Which “shrunken log2 fold change” value did it give?
A: Its value is 0.0328.

Q: Which “shrunken log2 fold change” value does the source give for RRIRTRPPRLPRPRPRPEMHPRP here?
A: The value was -0.149.

Q: How did the “shrunken log2 fold change” value turn out when RRIRHRPPRLPRPRPRPSWIPRP was run?
A: Its value is -0.171.

Q: How did the “shrunken log2 fold change” value turn out when RRIRDRPPRLPRPRPRPGFRPRP was run?
A: The value was 0.248.

Q: Which “shrunken log2 fold change” value does the source give for RRIRWRPPRLPRPRPRPFGPPRP here?
A: Its value is 0.0591.

Q: How did the “shrunken log2 fold change” value turn out when RRIRGRPPRLPRPRPRPYLEPRP was run?
A: The value was 0.296.

Q: With RRIRWRPPRLPRPRPRPWVTPRP as the sequence, how does the “shrunken log2 fold change” value read?
A: Its value is -0.37.

Q: With RRIRWRPPRLPRPRPRPMRGPRP as the sequence, how does the “shrunken log2 fold change” value read?
A: Its value is 0.754.

Q: With RRIRERPPRLPRPRPRPKKFPRP as the sequence, how does the “shrunken log2 fold change” value read?
A: The value was -0.524.

Q: RRIRIRPPRLPRPRPRPKENPRP was tested. Which “shrunken log2 fold change” value did it give?
A: The value was -0.505.

Q: How did the “shrunken log2 fold change” value turn out when RRIRERPPRLPRPRPRPIVAPRP was run?
A: Its value is 0.33.

Q: With RRIRPRPPRLPRPRPRPVNIPRP as the sequence, how does the “shrunken log2 fold change” value read?
A: Its value is -0.226.

Q: Which “shrunken log2 fold change” value does the source give for RRIRGRPPRLPRPRPRPHGLPRP here?
A: Its value is 0.211.

Q: How did the “shrunken log2 fold change” value turn out when RRIRIRPPRLPRPRPRPLPFPRP was run?
A: The value was -1.01.

Q: With RRIRKRPPRLPRPRPRPKQIPRP as the sequence, how does the “shrunken log2 fold change” value read?
A: Its value is 0.0984.

Q: How did the “shrunken log2 fold change” value turn out when RRIRYRPPRLPRPRPRPHCAPRP was run?
A: The value was -0.544.

Q: How did the “shrunken log2 fold change” value turn out when RRIRQRPPRLPRPRPRPLPYPRP was run?
A: Its value is -0.202.

Q: For RRIRGRPPRLPRPRPRPRFCPRP, which “shrunken log2 fold change” value is on record?
A: Its value is 0.569.

Q: With RRIRTRPPRLPRPRPRPRFGPRP as the sequence, how does the “shrunken log2 fold change” value read?
A: Its value is 0.319.

Q: With RRIRTRPPRLPRPRPRPYTYPRP as the sequence, how does the “shrunken log2 fold change” value read?
A: Its value is -0.489.

Q: With RRIRIRPPRLPRPRPRPLHKPRP as the sequence, how does the “shrunken log2 fold change” value read?
A: The value was -0.165.

Q: For RRIRVRPPRLPRPRPRPDFVPRP, which “shrunken log2 fold change” value is on record?
A: The value was -0.0423.

Q: RRIRMRPPRLPRPRPRPIWNPRP was tested. Which “shrunken log2 fold change” value did it give?
A: The value was -0.0214.

Q: RRIRFRPPRLPRPRPRPEQYPRP was tested. Which “shrunken log2 fold change” value did it give?
A: Its value is -0.234.

Q: How did the “shrunken log2 fold change” value turn out when RRIRMRPPRLPRPRPRPMKQPRP was run?
A: Its value is 0.0424.

Q: RRIRHRPPRLPRPRPRPWSPPRP was tested. Which “shrunken log2 fold change” value did it give?
A: The value was -0.697.

Q: For RRIRRRPPRLPRPRPRPPARPRP, which “shrunken log2 fold change” value is on record?
A: Its value is 0.762.

Q: RRIRVRPPRLPRPRPRPCRCPRP was tested. Which “shrunken log2 fold change” value did it give?
A: Its value is -0.239.

Q: With RRIRTRPPRLPRPRPRPQAFPRP as the sequence, how does the “shrunken log2 fold change” value read?
A: Its value is 0.0884.

Q: For RRIRQRPPRLPRPRPRPPLLPRP, which “shrunken log2 fold change” value is on record?
A: Its value is -0.114.

Q: Which “shrunken log2 fold change” value does the source give for RRIRTRPPRLPRPRPRPGIEPRP here?
A: Its value is -0.278.

Q: RRIRVRPPRLPRPRPRPQFLPRP was tested. Which “shrunken log2 fold change” value did it give?
A: Its value is 0.052.

Q: How did the “shrunken log2 fold change” value turn out when RRIRWRPPRLPRPRPRPCGQPRP was run?
A: Its value is 0.137.

Q: For RRIRSRPPRLPRPRPRPEMVPRP, which “shrunken log2 fold change” value is on record?
A: Its value is 0.0797.

Q: With RRIRLRPPRLPRPRPRPPNNPRP as the sequence, how does the “shrunken log2 fold change” value read?
A: The value was -0.106.

Q: For RRIRHRPPRLPRPRPRPYTTPRP, which “shrunken log2 fold change” value is on record?
A: Its value is -1.14.

Q: With RRIRERPPRLPRPRPRPQHIPRP as the sequence, how does the “shrunken log2 fold change” value read?
A: Its value is -0.15.

Q: For RRIRIRPPRLPRPRPRPEHKPRP, which “shrunken log2 fold change” value is on record?
A: The value was -0.199.

Q: How did the “shrunken log2 fold change” value turn out when RRIRVRPPRLPRPRPRPSACPRP was run?
A: The value was -0.768.

Q: How did the “shrunken log2 fold change” value turn out when RRIRGRPPRLPRPRPRPDALPRP was run?
A: The value was 0.889.

Q: Which “shrunken log2 fold change” value does the source give for RRIRTRPPRLPRPRPRPGYSPRP here?
A: The value was 1.78.

Q: RRIRRRPPRLPRPRPRPMDEPRP was tested. Which “shrunken log2 fold change” value did it give?
A: The value was 0.0223.

Q: Which “shrunken log2 fold change” value does the source give for RRIRIRPPRLPRPRPRPTHAPRP here?
A: Its value is 0.216.

Q: RRIRDRPPRLPRPRPRPHYIPRP was tested. Which “shrunken log2 fold change” value did it give?
A: The value was -1.02.

Q: With RRIRWRPPRLPRPRPRPNITPRP as the sequence, how does the “shrunken log2 fold change” value read?
A: Its value is -0.161.

Q: For RRIRARPPRLPRPRPRPATNPRP, which “shrunken log2 fold change” value is on record?
A: The value was 0.317.

Q: For RRIRLRPPRLPRPRPRPPGKPRP, which “shrunken log2 fold change” value is on record?
A: The value was -0.0183.

Q: Which “shrunken log2 fold change” value does the source give for RRIRYRPPRLPRPRPRPDKQPRP here?
A: Its value is 0.0233.

Q: RRIRYRPPRLPRPRPRPSLQPRP was tested. Which “shrunken log2 fold change” value did it give?
A: Its value is -0.126.

Q: How did the “shrunken log2 fold change” value turn out when RRIRYRPPRLPRPRPRPNTWPRP was run?
A: The value was -0.204.

Q: RRIRGRPPRLPRPRPRPYCNPRP was tested. Which “shrunken log2 fold change” value did it give?
A: Its value is -0.411.

Q: How did the “shrunken log2 fold change” value turn out when RRIRARPPRLPRPRPRPWFKPRP was run?
A: The value was -0.0366.

Q: How did the “shrunken log2 fold change” value turn out when RRIRKRPPRLPRPRPRPLCTPRP was run?
A: The value was 0.179.

Q: With RRIRHRPPRLPRPRPRPGQFPRP as the sequence, how does the “shrunken log2 fold change” value read?
A: Its value is -0.0207.

Q: How did the “shrunken log2 fold change” value turn out when RRIRMRPPRLPRPRPRPWWNPRP was run?
A: The value was 0.045.

Q: With RRIRHRPPRLPRPRPRPNQLPRP as the sequence, how does the “shrunken log2 fold change” value read?
A: Its value is -0.154.

Q: RRIRKRPPRLPRPRPRPKFHPRP was tested. Which “shrunken log2 fold change” value did it give?
A: Its value is 0.161.

Q: How did the “shrunken log2 fold change” value turn out when RRIRLRPPRLPRPRPRPAITPRP was run?
A: The value was -0.252.

Source: the supplement of paper PMC9112550, “Optimization of the antimicrobial peptide Bac7 by deep mutational scanning” (BMC Biology, 2022)
